# According to the nanobody polyreactivity screen of Harvey et al. (2022):
# Experiment: yeast display, Sf9 membrane polyspecificity reagent, FACS + sequencing; frameworks hold sequencing errors
# In short: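 Using colony PCR, genes from sorted yeast display clones were amplified, then sequenced on MiSeq at 2 × 250 and filtered by CDR length. The clones had been stained with 10% biotinylated, detergent-solubilized Sf9 membrane reagent for 1 hour at 4 °C and sorted by FACS into low and high (top ~1%) gates on anti-HA and streptavidin fluorescence. Polyreactivity labels come from the gate of origin.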
row,Sequence,polyreactivity (PSR sort gate)
1,QVQLVESGGGLVQAGGSLRLSCAASGSIFISYAMGWYRQAPGKERELVAAISRSAGRTYYADSVKGRFTISRDNAKNTVYLQMNSLKPEDTAVYYCAASGYKNGVYTYGYWGQGTQVTVSS,high polyreactivity
2,QVQLVESGGGLVQAGGSLRLSCAASGSIFITYAMGWYRQAPGKERELVAAIRDSGDRTYYADSVKGRFTISRDKAKNTDYLQKNSLKPEDTAVYYCNARWQEPLKYDYWGQGTQVTVSS,low polyreactivity
3,QVQLVESGGGLVQAGGSLRLSCAASGSIFITYAMGWYRQAPGKERELVAAIRDSGDRTYYADSVKGRFTISRDNAKNTVYLQMNRLKPEETAVYYCNARWQEPLKYDYWGQGTQVTVSS,low polyreactivity
4,QVQLVESGGGLVQAGGSLRLSCAASGSIFIVYAMGWYRQAPGKERELVATITSGGSTNYADSVKGRFTISRDNAKNTVYLQMNSLKPEDTAVYYCATQFPPSTIYDYWGQGTQVTVSS,low polyreactivity
5,QVQLVESGGGLVQAGGSLRLSCAASGSIFIYNAMGWYRQAPGKERELVAAISSSGGSTYYADSVKGRFTISRDNAKNTVYLQMNSLKPEDTAVYYCAARTYYVRGLGGRTGMDYWGQGTQVTVSS,low polyreactivity
6,QVQLVESGGGLVQAGGSLRLSCAASGSIFIYNAMGWYRQAPGKERELVAAISSSGGSTYYADSVKGRFTISRDYAKNTVYLQLNSLKPEDTAVYYCAARTYYVRGLGGRPGMDYWGQGTHVTVSS,low polyreactivity
7,QVQLVESGGGLVQAGGSLRLSCAASGSIFIYYAIGWYRKAPGKERELVAAIDRSGGNTYYADSVKGRFTISRDNAKNTVYLQMNSLKPEDTAVYYCAALVHRRVQYDYWGQGTQVTVSS,high polyreactivity
8,QVQLVESGGGLVQAGGSLRLSCAASGSIFIYYAMGWYRQAPGKEMELVAAISSSGGSTYYADSVKGRFTISRDNAKNTVYLQMNSLKPEDTAVYYCAAAYGGRLRYTAGYYWGQGTQVTVSS,high polyreactivity
9,QVQLVESGGGLVQAGGSLRLSCAASGSIFIYYAMGWYRQAPGKERELVAAIDYSGDSTYYADSVKGRFTISRDNAKNTVYLQMNSLKPEDTAVYYCAVYYAGWGDYWGQGTQVTVSS,low polyreactivity
10,QVQLVESGGGLVQAGGSLRLSCAASGSIFIYYAMGWYRQAPGKERELVAAISWSGGDTYYADSVKGRFTISRDNAKNTVYFHMNILKPEDTAVYYCNADYYPYYPYTAWDTVLTHDEYWGQGTQVTVSS,low polyreactivity
11,QVQLVESGGGLVQAGGSLRLSCAASGSIFIYYAMGWYRQAPGKERELVAAISWSGGDTYYADSVKGRFTISRDNAKNTVYLQMNSLKPEDTAVYYCNADYDPYYPYTAWDTVLTHDEYWGQGTQVTVSS,low polyreactivity
12,QVQLVESGGGLVQAGGSLRLSCAASGSIFIYYAMGWYRQAPGKERELVAGININGGSTYYADSVKGRFTISRDNAKNTVYLQMNSLKPEDTAVYYCAADELWWTYWDFVTNWYQRDYWGQGTQVTVSS,low polyreactivity
13,QVQLVESGGGLVQAGGSLRLSCAASGSIFIYYSMGWYRQAPGKERELVAAISWSGGDTYYADSVKGRFTISRDNAKNTVYLQMNSLKPEDTAVYYCAADSVTRPAGDYWGQGTQVTVSS,low polyreactivity
14,QVQLVESGGGLVQAGGSLRLSCAASGSIFKDNAMGWYRQAPGKERELVAAITSGASTNYADSVKGRFTISRDNAKNTVYLQMNSLKPEDTAVYYCAAVLAGGVYWVVHYDYWGQGTQVTVSS,low polyreactivity
15,QVQLVESGGGLVQAGGSLRLSCAASGSIFKEYAMGWYRQAPGKERELVAAITGSGGSTFYADSVKGRFTISRDNAKNTVYLQMNSLIPEDTAVYYCNARRPAKSRYRHDYWGQGTQVTVSS,high polyreactivity
16,QVQLVESGGGLVQAGGSLRLSCAASGSIFKEYTMGWYRQAPGKERELVAAITWSDGSTDYADSVKGRFTISRDNAKNTVYLQMNSLKPEDTAVYYCAADYDYPYFWSSGYIDDYWGQGTQVTVSS,low polyreactivity
17,QVQLVESGGGLVQAGGSLRLSCAASGSIFKFNTMGWYRQAPGKERELVASITRVGSTYYADSVKGRFTISRDNAKNTVYLQMNSLKPEDTAVYYCAARFLYYTYKTFRTYDYWGQGTQVSVSS,high polyreactivity
18,QVQLVESGGGLVQAGGSLRLSCAASGSIFKFYTMGWYIQAPGKERELVATITSGGRTNYADSVKGRFTISPDNAKNTVYLQMNTLKPEDTAVYYCAATWLRVKYRFKGYDYWGQGTQVTVSS,high polyreactivity
19,QVQLVESGGGLVQAGGSLRLSCAASGSIFKFYTMGWYRQAAGKEWELVATISRSGGGTFYADSVKGRFTISRDNAKNTVYLQMNSLKPEDTAVYYCAADPAFTHYPYGYGYWGQGTQVTVSS,low polyreactivity
20,QVQLVESGGGLVQAGGSLRLSCAASGSIFKGYAMGWYRQAPGKERELVAAITIDGSTYYADSVKGRFTISRDNAKNTVYLQMNSLKPEDTAVYYCAAVYLWYGSWPLHFAAYDYWGQGTQVTVSS,low polyreactivity
21,QVQLVESGGGLVQAGGSLRLSCAASGSIFKGYAMGWYRQAPGKERELVAAITYSGGGTYYADSVKGRFTISRDNAKNTVYIQMNILKPEDTAVYYCNADRYYPDDLSDGVGTYDYWGQGTQVTVSS,low polyreactivity
22,QVQLVESGGGLVQAGGSLRLSCAASGSIFKGYAMGWYRQAPGKERELVASITSSGASTYYADSGKGRFTISRDNAKNTVYLHMNSLKPEDTAVYYCATDHESVRVLVSSTSDYDYWGQGTQVTVSS,low polyreactivity

row,Sequence,polyreactivity (PSR sort gate)
1,QVQLVESGGGLVQAGGSLRLSCAASGSIFKHNDMGWYRQAPGKERELVAAISRSGGSTYYADSVKGRFTISRDNAKNTVYLQMNSLKPEDTAVYYCAKDGVGAPSTYNYWGQGTQVTVSS,high polyreactivity
2,QVQLVESGGGLVQAGGSLRLSCAASGSIFKKYAKGWYIQAPGKERELVAAISKSGGSTYYADSVKGRFTISRDNAKTTVYLQMNSLKPEDTAVYYCAAAAGGSAYWDYDYWGQGTQVTVSS,low polyreactivity
3,QVQLVESGGGLVQAGGSLRLSCAASGSIFKKYAMVWYRQAPGKERELVAAITRGTYYADSVKGRFTISRDNAKNTVYLQMNSLKPEDTAVYFCNREYWGRGYYRVRGEYDYWGQGTQVTVSS,low polyreactivity
4,QVQLVESGGGLVQAGGSLRLSCAASGSIFKPYAMGWSRQAPGKERELVAAISRSGSTYYADSVKGRFTISRDNAKNTVYLQMNSLKPEDTAVYYCAKDVRPNYYAAFNYWGQGTQVTVSS,low polyreactivity
5,QVQLVESGGGLVQAGGSLRLSCAASGSIFKPYAMGWYRQAPGKERELVAAISRSGSTYYADSVKGRFTISRDNAKNTVYLQMNSLKPEDTAVYYCAKDVRPNYYAAFNYWGQGTQVTVSS,low polyreactivity
6,QVQLVESGGGLVQAGGSLRLSCAASGSIFKPYAMGWYRQAPGKERELVAAITRSGGSTYYADSVKGRFTISRDKAKNTVYLQMNSLKPEDTAVYYCAAGNAPYFRYGSKKYGYWGQGTQVTVSS,high polyreactivity
7,QVQLVESGGGLVQAGGSLRLSCAASGSIFKPYAMGWYRQAPGKERELVARISWSTGRTYYADSVKGRFTISRDNAKNTVYLQMNSLKPEDTEVYDCDAAVAVRYGYWGQGTQVTVSS,high polyreactivity
8,QVQLVESGGGLVQAGGSLRLSCAASGSIFKQYAMGWYRQAPGKERELVAAITWRGTGTYYADSVKGRFTISRDNAKNTVYLQMNSLKPEDTAVYYCAAKWYRRTYGYLPYTGIVNYDYWGQGTQVTVSS,high polyreactivity
9,QVQLVESGGGLVQAGGSLRLSCAASGSIFKRNAMGWYRQAPGKERELVAAIRVNGGITYYADSVKGRFTISRDNAKNTVFLQMNSLKPEDTSVYYCAVYSRQGLGYWGQGTQVTVSS,high polyreactivity
10,QVQLVESGGGLVQAGGSLRLSCAASGSIFKSNAMGWYRQAPGKERELVAAISNGGITNYADSVKGRFTISRDNAKNTVYLQMNSLKPEDTAVYYCATSDVREIWVDYWGQGTQVTVSS,low polyreactivity
11,QVQLVESGGGLVQAGGSLRLSCAASGSIFKTYAMGWYRQAPGKERELVAAITSGVSTNYADSVKGRFTISRDNAKNTVYLQMNSLKPEDTAVYYCNVDTSSPSRRDYDYWGQGTQVTVSS,low polyreactivity
12,QVQLVESGGGLVQAGGSLRLSCAASGSIFKVYAMGWYRQAPGKEREFVAAITSSDSNTNYADSVKGRFTISRDNAKNTDYLQMNSLKPEDTAVYYCNARIYTRRYVPHYGFNYWGQGTQVTVSS,low polyreactivity
13,QVQLVESGGGLVQAGGSLRLSCAASGSIFKVYAMGWYRQAPGKEREFVAAITSSDSNTNYADSVKGRFTISRDNAKNTVYLQMNSLKPEDTAVYYCNARIYTRRYVPHYGFNYWGQGTQVTVSS,low polyreactivity
14,QVQLVESGGGLVQAGGSLRLSCAASGSIFKYNDMGWYRQAPGKERELVAAITSDSSTYYADSVKGRFTISRDNAKNTVYLQMNSLKPVDTAVYYCAADTTGFTTYAYWYDYWGQGTQVTVSS,low polyreactivity
15,QVQLVESGGGLVQAGGSLRLSCAASGSIFKYNTMGWYRQAPRKERELVAAINGGGSTYYADSVKGRFTISRDNAKNTVYLLMNSLKPEDTAVYYCNARQWYWESPDDYWGQGTQVTVSS,low polyreactivity
16,QVQLVESGGGLVQAGGSLRLSCAASGSIFKYYAMGWYRQAPGKERELVAAISRSGSNTYYADSVKGRFTISRDNPKNTVYLQMNSLKPEDTAVYYCAAVKGPERPTSPYDYWGQGTQVTVSS,high polyreactivity
17,QVQLVESGGGLVQAGGSLRLSCAASGSIFKYYAMGWYRQAPGKERELVAAISSGGITNYADSVKGRFTISRDNAKNTVYLQMNSLKPEDTAVYYCAARDYVRFGLYDYDYWGQGTQVTVSS,low polyreactivity
18,QVQLVESGGGLVQAGGSLRLSCAASGSIFKYYAMGWYRQATGKERELVAAISSGGSTKYADSVKGRFTITRDNAKNTVYLQMNSLKPEDTAVYYCAARDPSRHARRAYDYWGQGTQVTVSS,low polyreactivity
19,QVQLVESGGGLVQAGGSLRLSCAASGSIFLANAMGWYRQAPGKERELVAGISSSVTTNYADSVKGRFTISRDNAKNTVYLQMNSLKPEDTAVYYSNAVYGVYDFNYWVQGTQVTVSS,low polyreactivity
20,QVQLVESGGGLVQAGGSLRLSCAASGSIFLDNAMGWYRQAPGKERELVAAISKSGTRTYYADSVKGRFTISRDNAKTTVYLQMNSLKPEDTAVFYCNVVPKQAKRVELIGYYYWGQGTQVTVSS,high polyreactivity
21,QVQLVESGGGLVQAGGSLRLSCAASGSIFLDYAMGWYRQAPGKERELVATITSGSSTYADSVKGRFTISRDNAKNTVYLQMNSLKPEDTAVYYCNVKLIVRYWNPSPYDYWGQGTQVTVSS,low polyreactivity
